In US5215888A, “Kit for assaying the cellular integrity of blood platelets” (Yeda Research and Development Co. Ltd., priority 1988, dated 1993):
Ends that are not written are not given here.

Assays:
PKA = biological target: T1, PKA (Homo sapiens, UniProt P17612); experiment: Inhibition of vitronectin phosphorylation by PKA in the presence of competing peptide; type: biochemical; settings: for inhibition of the phosphorylation of vitronectin by PKA (in words): competitive
T1 construct: pure catalytic subunit of PKA from rabbit muscle; from tissue
Text: Peptides containing the sequence Arg-Arg-Pro-X-Arg (X=Ser, Thr, Ala, Cys, Tyr) inhibit the phosphorylation of vitronectin by PKA.
FIG. 5 Inhibition of vitronectin phosphorylation by PKA in the presence of the indicated concentrations of a peptide identical in sequence to the site phosphorylated in vitronectin.

[1] = system: vitronectin phosphorylation by PKA; experiment: Phosphorylation of vitronectin at various pH in the presence or absence of heparin; type: biochemical; settings: 3-fold molar excess of heparin over vitronectin (2.7 μM); FIG. 6
Protocol: The phosphorylation of vitronectin (p75 and mainly the p65 form) is affected by pH and by the presence of heparin in the reaction mixture (FIG. 6).
FIG. 6 Vitronectin (2.7 μM was incubated for 2 h at 22° C. with C (1 μg/ml) in the presence of Mg(CH3 COO)2 (10 mM), [γ^32 ]ATP 50 μM, 0.5 Ci/mmol), (50 Mes at the indicated pH), and a 3-fold molar excess of heparin over vitronectin (where indicated). The reaction was terminated by boiling in Laemli's sample buffer and the extent of phosphorylation was analyzed by polyacrylamide gel electrophoresis and autoradiography.

inhibition of the phosphorylation of vitronectin by PKA (in words) (PKA)	Ki (PKA; FIG. 5, peptide competes as alternative substrate, read-out: Ki concentration for inhibition of the phosphorylation of vitronectin by PKA)	Substance	effect on the amount of phosphorylation of vitronectin [1]
competitively inhibit	–	-Arg-Arg-Pro-Ser-Arg- (RRPSR; printed: Arg-Arg-Pro-Ser-Arg-)	–
compete with (inhibit)	30 µM	SRRPSRAT	–
–	–	heparin	increase
